Test results: PMC9426534, “Interactions of Bacterial Toxin CNF1 and Host JAK1/2 Driven by Liquid-Liquid Phase Separation Enhance Macrophage Polarization” (mBio, 2022)

B1: MYC-JAK1 truncation mutant 1-855 (domain or fragment)
chain: MQYLNIKEDCNAMAFCAKMRSSKKTEVNLEAPEPGVEVIFYLSDREPLRLGSGEYTAEELCIRAAQACRISPLCHNLFALYDENTKLWYAPNRTITVDDKMSLRLHYRMRFYFTNWHGTNDNEQSVWRHSPKKQKNGYEKKKIPDATPLLDASSLEYLFAQGQYDLVKCLAPIRDPKTEQDGHDIENECLGMAVLAISHYAMMKKMQLPELPKDISYKRYIPETLNKSIRQRNLLTRMRINNVFKDFLKEFNNKTICDSSVSTHDLKVKYLATLETLTKHYGAEIFETSMLLISSENEMNWFHSNDGGNVLYYEVMVTGNLGIQWRHKPNVVSVEKEKNKLKRKKLENKHKKDEEKNKIREEWNNFSYFPEITHIVIKESVVSINKQDNKKMELKLSSHEEALSFVSLVDGYFRLTADAHHYLCTDVAPPLIVHNIQNGCHGPICTEYAINKLRQEGSEEGMYVLRWSCTDFDNILMTVTCFEKSEQVQGAQKQFKNFQIEVQKGRYSLHGSDRSFPSLGDLMSHLKKQILRTDNISFMLKRCCQPKPREISNLLVATKKAQEWQPVYPMSQLSFDRILKKDLVQGEHLGRGTRTHIYSGTLMDYKDDEGTSEEKKIKVILKVLDPSHRDISLAFFEAASMMRQVSHKHIVYLYGVCVRDVENIMVEEFVEGGPLDLFMHRKSDVLTTPWKFKVAKQLASALSYLEDKDLVHGNVCTKNLLLAREGIDSECGPFIKLSDPGIPITVLSRQECIERIPWIAPECVEDSKNLSVAADKWSFGTTLWEICYNGEIPLKDKTLIEKERFYESRCRPVTPSCKELADLMTRCMNYDPNQRPFFRAIMRDINKLEEQNPDI
notes: source: recombinant, purified
B2: MYC-JAK1 truncation mutant 1-544 (domain or fragment)
chain: MQYLNIKEDCNAMAFCAKMRSSKKTEVNLEAPEPGVEVIFYLSDREPLRLGSGEYTAEELCIRAAQACRISPLCHNLFALYDENTKLWYAPNRTITVDDKMSLRLHYRMRFYFTNWHGTNDNEQSVWRHSPKKQKNGYEKKKIPDATPLLDASSLEYLFAQGQYDLVKCLAPIRDPKTEQDGHDIENECLGMAVLAISHYAMMKKMQLPELPKDISYKRYIPETLNKSIRQRNLLTRMRINNVFKDFLKEFNNKTICDSSVSTHDLKVKYLATLETLTKHYGAEIFETSMLLISSENEMNWFHSNDGGNVLYYEVMVTGNLGIQWRHKPNVVSVEKEKNKLKRKKLENKHKKDEEKNKIREEWNNFSYFPEITHIVIKESVVSINKQDNKKMELKLSSHEEALSFVSLVDGYFRLTADAHHYLCTDVAPPLIVHNIQNGCHGPICTEYAINKLRQEGSEEGMYVLRWSCTDFDNILMTVTCFEKSEQVQGAQKQFKNFQIEVQKGRYSLHGSDRSFPSLGDLMSHLKKQILRTDNISFMLKRCC
notes: source: recombinant, purified
B3: FLAG-CNF1 truncation mutant 1-720 (N2) (domain or fragment)
chain: MGNQWQQKYLLEYNELVSNFPSPERVVSDYIKNCFKTDLPWFSRIDPDNAYFICFSQNRSNSRSYTGWDHLGKYKTEVLTLTQAALINIGYRFDVFDDANSSTGIYKTKSADVFNEENEEKMLPSEYLHFLQKCDFAGVYGKTLSDYWSKYYDKFKLLLKNYYISSALYLYKNGELDEREYNFSMNALNRSDNISLLFFDIYGYYASDIFVAKNNDKVMLFIPGAKKPFLFKKNIADLRLTLKELIKDSDKQQLLSQHFSLYSRQDGVSYAGVNSVLHAIENDGNFNESYFLYSNKTLSNKDVFDAIAISVKKRSFSDGDIVIKSNSEAQRDYALTILQTILSMTPIFDIVVPEVSVPLGLGIITSSMGISFDQLINGDTYEERRSAIPGLATNAVLLGLSFAIPLLISKAGINQEVLSSVINNEGRTLNETNIDIFLKEYGIAEDSISSTNLLDVKLKSSGQHVNIVKLSDEDNQIVAVKGSSLSGIYYEVDIETGYEILSRRIYRTEYNNEILWTRGGGLKGGQPFDFESLNIPVFFKDEPYSAVTGSPLSFINDDSSLLYPDTNPKLPQPTSEMDIVNYVKGSGSFGDRFVTLMRGATEEEAWNIASYHTAGGSTEELHEILLGQGPQSSLGFTEYTSNVNSADAASRRHFLVVIKVHVKYITNNNVSYVNHWAIPDEAPVEVLAVVDRRFNFPEPSTPPDISTIRKLLSLRYFKES
notes: source: recombinant, purified
B4: FLAG-CNF1 truncation mutant 190-1014 (C1) (domain or fragment)
chain: RSDNISLLFFDIYGYYASDIFVAKNNDKVMLFIPGAKKPFLFKKNIADLRLTLKELIKDSDKQQLLSQHFSLYSRQDGVSYAGVNSVLHAIENDGNFNESYFLYSNKTLSNKDVFDAIAISVKKRSFSDGDIVIKSNSEAQRDYALTILQTILSMTPIFDIVVPEVSVPLGLGIITSSMGISFDQLINGDTYEERRSAIPGLATNAVLLGLSFAIPLLISKAGINQEVLSSVINNEGRTLNETNIDIFLKEYGIAEDSISSTNLLDVKLKSSGQHVNIVKLSDEDNQIVAVKGSSLSGIYYEVDIETGYEILSRRIYRTEYNNEILWTRGGGLKGGQPFDFESLNIPVFFKDEPYSAVTGSPLSFINDDSSLLYPDTNPKLPQPTSEMDIVNYVKGSGSFGDRFVTLMRGATEEEAWNIASYHTAGGSTEELHEILLGQGPQSSLGFTEYTSNVNSADAASRRHFLVVIKVHVKYITNNNVSYVNHWAIPDEAPVEVLAVVDRRFNFPEPSTPPDISTIRKLLSLRYFKESIESTSKSNFQKLSRGNIDVLKGRGSISSTRQRAIYPYFEAANADEQQPLFFYIKKDRFDNHGYDQYFYDNTVGLNGIPTLNTYTGEIPSDSSSLGSTYWKKYNLTNETSIIRVSNSARGANGIKIALEEVQEGKPVIITSGNLSGCTTIVARKEGYIYKVHTGTTKSLAGFTSTTGVKKAVEVLELLTKEPIPRVEGIMSNDFLVDYLSENFEDSLITYSSSEKKPDSQITIIRDNVSVFPYFLDNIPEHGFGTSATVLVRVDGNVVVRSLSESYSLNADASEISVLKVFSKKF
notes: source: recombinant, purified

Columns and labels:
[1] = target: T1, Cytotoxic necrotizing factor 1 (CNF1), recombinant FLAG-tagged, full length (uropathogenic Escherichia coli (UPEC), UniProt Q47106 1-1014); experiment: co-IP; in vitro, purified proteins; truncated MYC-tagged JAK1 proteins precipitated, FLAG-tagged CNF1 detected and normalised to the MYC-JAK1 in the IP; details: both partners purified
T1 construct: also called FLAG-CNF1; FLAG-tagged full-length CNF1; source: recombinant, purified (additionally by size exclusion chromatography)

[2] = target: T2, MYC-tagged JAK1, full length (UniProt P23458 1-1154); experiment: co-IP; in vitro, purified proteins; truncated FLAG-tagged CNF1 proteins precipitated, MYC-tagged JAK1 detected and normalised to the FLAG-CNF1 in the IP; details: both partners purified
T2 construct: also called MYC-JAK1; MYC-tagged full-length JAK1; source: HeLa, transfected, in lysate

| Binder | binding result [1] | binding result [2] |
| --- | --- | --- |
| B1 | binds |  |
| B2 | binds |  |
| B3 |  | binds |
| B4 |  | binds |
